Reference: the supplement of paper PMC9876800

Tested on: peptide library, one residue held at a place counted from the S/T acceptor
Test: relative phosphorylation of the sub-library (ratio to the mean residue at this position); higher = residue favoured
Method in brief: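 In 384-well plates, purified recombinant kinases (human or orthologue constructs) were incubated for 90 min under kinase-specific conditions with 50 μM biotinylated degenerate peptide sub-libraries and 50 μM ATP spiked with γ-32P-ATP. Each sub-library fixed a single residue at one position around a central Ser/Thr. Relative sub-library phosphorylation, measured by phosphorimaging and densitometry of streptavidin membrane spots, is given as a ratio to the mean residue at that position.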

Chain of NEK3, construct: Full length, human (P51956 whole entry, looked up): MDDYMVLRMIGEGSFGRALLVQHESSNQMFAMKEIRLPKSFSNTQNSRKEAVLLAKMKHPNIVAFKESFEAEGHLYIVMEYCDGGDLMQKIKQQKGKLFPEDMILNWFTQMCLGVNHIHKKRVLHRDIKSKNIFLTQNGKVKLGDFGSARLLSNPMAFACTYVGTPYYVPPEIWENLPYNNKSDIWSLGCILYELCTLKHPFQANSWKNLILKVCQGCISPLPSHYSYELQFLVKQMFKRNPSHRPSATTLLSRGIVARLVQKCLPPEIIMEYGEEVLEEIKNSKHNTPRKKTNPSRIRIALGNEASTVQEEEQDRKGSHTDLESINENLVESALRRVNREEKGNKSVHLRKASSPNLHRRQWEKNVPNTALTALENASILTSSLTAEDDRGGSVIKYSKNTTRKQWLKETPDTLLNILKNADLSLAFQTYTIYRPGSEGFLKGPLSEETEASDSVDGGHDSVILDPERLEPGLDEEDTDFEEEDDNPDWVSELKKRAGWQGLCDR
Chain of NEK2, construct: Full length, human (P51955 whole entry, looked up): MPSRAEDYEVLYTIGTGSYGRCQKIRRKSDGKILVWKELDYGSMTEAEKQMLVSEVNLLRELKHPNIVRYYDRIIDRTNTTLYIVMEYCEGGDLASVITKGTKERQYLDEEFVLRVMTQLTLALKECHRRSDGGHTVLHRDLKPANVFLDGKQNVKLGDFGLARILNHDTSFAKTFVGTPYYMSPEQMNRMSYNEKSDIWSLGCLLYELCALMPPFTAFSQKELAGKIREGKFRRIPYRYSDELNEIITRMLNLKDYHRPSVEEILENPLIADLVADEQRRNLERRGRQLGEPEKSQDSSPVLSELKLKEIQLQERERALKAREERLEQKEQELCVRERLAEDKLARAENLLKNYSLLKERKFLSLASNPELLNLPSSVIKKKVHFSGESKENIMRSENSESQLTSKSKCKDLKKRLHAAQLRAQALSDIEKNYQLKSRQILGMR
Chain of PDPK1, construct: Full length, human (O15530 whole entry, looked up): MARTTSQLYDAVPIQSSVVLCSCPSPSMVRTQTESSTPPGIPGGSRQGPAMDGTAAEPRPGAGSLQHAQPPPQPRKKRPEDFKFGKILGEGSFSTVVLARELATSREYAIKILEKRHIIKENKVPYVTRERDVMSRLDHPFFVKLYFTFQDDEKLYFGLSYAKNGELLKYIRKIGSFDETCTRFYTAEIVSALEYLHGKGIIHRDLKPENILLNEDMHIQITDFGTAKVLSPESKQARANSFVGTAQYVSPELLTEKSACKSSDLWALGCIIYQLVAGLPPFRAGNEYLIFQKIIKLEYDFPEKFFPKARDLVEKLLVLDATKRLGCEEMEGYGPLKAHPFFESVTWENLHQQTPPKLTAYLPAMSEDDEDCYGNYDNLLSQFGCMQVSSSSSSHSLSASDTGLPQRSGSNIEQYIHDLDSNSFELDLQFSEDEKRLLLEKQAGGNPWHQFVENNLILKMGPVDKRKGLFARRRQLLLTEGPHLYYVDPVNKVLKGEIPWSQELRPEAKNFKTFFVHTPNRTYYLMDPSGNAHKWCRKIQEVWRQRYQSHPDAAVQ

MAPK9, construct: Full length, human (from UniProt P45984)
relative phosphorylation
Conditions | at +1 | at +2 | at +3 | at +4 | at -1 | at -2 | at -3 | at -4 | at -5
A fixed | 0.338 | 0.988 | 1.43 | 1.17 | 1.16 | 2.09 | 1.24 | 1.17 | 1.14
D fixed | 0.147 | 0.96 | 1.38 | 1.21 | 0.686 | 0.686 | 1.13 | 1.19 | 0.957
E fixed | 0.151 | 0.694 | 1.34 | 1.27 | 0.862 | 0.379 | 1.19 | 1.09 | 0.869
F fixed | 0.358 | 0.75 | 0.781 | 0.805 | 0.68 | 0.717 | 0.814 | 0.965 | 0.946
G fixed | 0.646 | 1.33 | 1.53 | 1.32 | 1.28 | 0.653 | 1.21 | 1.14 | 1.15
H fixed | 0.195 | 0.997 | 0.985 | 1.02 | 1 | 0.494 | 0.95 | 0.878 | 0.924
I fixed | 0.433 | 1.24 | 0.638 | 0.879 | 0.695 | 1.28 | 0.76 | 0.861 | 0.801
K fixed | 0.164 | 0.632 | 0.648 | 0.795 | 1.09 | 0.545 | 0.915 | 1.08 | 1.34
L fixed | 0.462 | 1.18 | 0.879 | 0.787 | 1.37 | 2.05 | 1.08 | 1 | 0.923
M fixed | 0.314 | 1.75 | 0.959 | 0.913 | 1.4 | 1.28 | 0.93 | 1.04 | 0.801
N fixed | 0.17 | 1.07 | 0.973 | 0.934 | 0.854 | 0.494 | 1.07 | 0.886 | 0.94
P fixed | 12.4 | 0.721 | 0.886 | 1.66 | 1.28 | 2.58 | 1.16 | 1.24 | 1.38
Q fixed | 0.193 | 1.06 | 1.01 | 1.04 | 1.36 | 0.741 | 1.07 | 1.06 | 1.02
R fixed | 0.187 | 0.803 | 0.908 | 0.802 | 1.25 | 0.635 | 1.09 | 0.938 | 1.02
V fixed | 0.339 | 1.4 | 0.845 | 0.869 | 0.76 | 1.32 | 0.768 | 0.365 | 0.833
W fixed | 0.303 | 0.69 | 0.951 | 0.817 | 0.533 | 0.543 | 0.729 | 1.02 | 0.886
Y fixed | 0.239 | 0.745 | 0.859 | 0.712 | 0.743 | 0.511 | 0.875 | 1.09 | 1.07
pThr fixed | 0.495 | 2.23 | 1.06 | 1.16 | 0.432 | 0.933 | 0.957 | 0.975 | 0.996
pTyr fixed | 0.347 | 0.987 | 1.07 | 0.719 | 0.468 | 0.429 | 0.778 | 0.808 | 0.836

NEK2, construct: Full length, human (from UniProt P51955)
relative phosphorylation
Conditions | at +1 | at +2 | at +3 | at +4 | at -1 | at -2 | at -3 | at -4 | at -5
A fixed | 0.655 | 1.03 | 0.897 | 0.958 | 1.25 | 1.5 | 1.09 | 1.06 | 1.3
D fixed | 0.189 | 0.318 | 0.782 | 0.806 | 0.644 | 0.552 | 0.307 | 0.772 | 0.938
E fixed | 0.203 | 0.195 | 0.916 | 0.811 | 0.81 | 0.438 | 0.301 | 0.73 | 0.694
F fixed | 1.19 | 0.835 | 0.878 | 0.906 | 0.783 | 1.2 | 2.37 | 1.2 | 1.3
G fixed | 0.656 | 0.834 | 1.06 | 1.12 | 0.959 | 1.29 | 1.23 | 1.29 | 1.14
H fixed | 1.03 | 1.43 | 1.08 | 1.04 | 1.03 | 1.16 | 1.07 | 1.11 | 1
I fixed | 1.5 | 0.624 | 0.864 | 0.775 | 0.561 | 0.636 | 0.466 | 0.818 | 0.767
K fixed | 0.846 | 1.69 | 1.18 | 1.4 | 1.53 | 1.42 | 0.638 | 1.07 | 1.19
L fixed | 1.79 | 0.638 | 1.06 | 0.949 | 0.917 | 0.799 | 1.89 | 1.04 | 0.828
M fixed | 2.1 | 0.873 | 0.899 | 0.875 | 1.4 | 1.11 | 1.77 | 0.964 | 0.862
N fixed | 0.85 | 0.888 | 1.02 | 0.964 | 1.04 | 0.989 | 0.733 | 0.931 | 0.884
P fixed | 0.151 | 0.771 | 1.08 | 1.14 | 0.23 | 0.405 | 0.965 | 0.963 | 1.04
Q fixed | 1.26 | 0.696 | 0.874 | 1.06 | 1.21 | 0.852 | 0.661 | 0.881 | 0.81
R fixed | 1.26 | 3.71 | 1.5 | 1.45 | 1.98 | 1.75 | 0.77 | 0.902 | 1.18
V fixed | 1.18 | 0.71 | 0.875 | 0.745 | 0.743 | 0.65 | 0.48 | 0.828 | 0.934
W fixed | 0.983 | 0.748 | 0.916 | 1.14 | 0.85 | 1.06 | 1.11 | 1.44 | 1.1
Y fixed | 1.17 | 1.01 | 1.13 | 0.874 | 1.08 | 1.19 | 1.15 | 1.01 | 1.03
pThr fixed | 0.425 | 0.383 | 0.557 | 0.688 | 0.278 | 0.449 | 0.545 | 0.747 | 0.658
pTyr fixed | 0.547 | 0.275 | 0.758 | 0.62 | 0.697 | 0.525 | 0.752 | 0.642 | 0.66

NEK3, construct: Full length, human (from UniProt P51956)
relative phosphorylation
Conditions | at +1 | at +2 | at +3 | at +4 | at -1 | at -2 | at -3 | at -4 | at -5
A fixed | 0.842 | 0.788 | 1.09 | 0.919 | 1.02 | 0.977 | 1.09 | 1.16 | 1.06
D fixed | 0.145 | 0.299 | 0.257 | 0.346 | 0.588 | 0.551 | 0.343 | 0.456 | 0.653
E fixed | 0.12 | 0.323 | 0.219 | 0.321 | 0.496 | 0.632 | 0.36 | 0.511 | 0.632
F fixed | 1.67 | 0.786 | 1.1 | 0.796 | 0.841 | 1.37 | 1.98 | 1.43 | 1.05
G fixed | 0.687 | 1.41 | 1.42 | 1.64 | 1.33 | 1.45 | 1.51 | 1.28 | 1.25
H fixed | 1.13 | 1.45 | 1.07 | 1.35 | 1.45 | 1.21 | 1.11 | 1.03 | 1.17
I fixed | 1.65 | 0.967 | 1.12 | 0.984 | 0.629 | 0.749 | 0.642 | 0.798 | 0.97
K fixed | 0.579 | 1.4 | 1.07 | 1.24 | 1.07 | 0.866 | 0.478 | 1.02 | 1.1
L fixed | 1.29 | 0.674 | 1.22 | 0.841 | 0.865 | 1.19 | 1.65 | 1.09 | 0.959
M fixed | 1.94 | 1.09 | 1.05 | 0.982 | 1.59 | 1.42 | 1.87 | 1.2 | 1.27
N fixed | 0.416 | 1.21 | 0.721 | 1.05 | 1.03 | 0.903 | 0.657 | 0.848 | 1.02
P fixed | 0.351 | 0.719 | 1.2 | 1.38 | 0.204 | 0.259 | 0.495 | 0.597 | 0.821
Q fixed | 0.719 | 0.826 | 0.873 | 0.769 | 0.846 | 0.826 | 0.561 | 0.867 | 0.74
R fixed | 0.807 | 2.17 | 1.28 | 1.6 | 2 | 0.822 | 1.05 | 1.05 | 1.54
V fixed | 1.66 | 0.904 | 1.01 | 0.768 | 0.739 | 0.734 | 0.486 | 0.823 | 0.7
W fixed | 1.56 | 0.774 | 1.27 | 1.08 | 0.938 | 1.49 | 1.42 | 1.79 | 0.993
Y fixed | 1.42 | 1.21 | 1.05 | 0.958 | 1.36 | 1.55 | 1.28 | 1.05 | 1.07
pThr fixed | 0.188 | 0.183 | 0.26 | 0.166 | 0.146 | 0.255 | 0.386 | 0.57 | 0.612
pTyr fixed | 0.165 | 0.278 | 0.254 | 0.254 | 0.414 | 0.612 | 0.399 | 0.446 | 0.642

PDPK1, construct: Full length, human (from UniProt O15530)
relative phosphorylation
Conditions | at +1 | at +2 | at +3 | at +4 | at -1 | at -2 | at -3 | at -4 | at -5
A fixed | 0.609 | 1.18 | 0.927 | 1.02 | 0.812 | 1.48 | 1 | 1.13 | 1.12
D fixed | 0.37 | 0.618 | 0.647 | 0.802 | 0.519 | 0.523 | 0.571 | 0.935 | 1.25
E fixed | 0.402 | 0.537 | 0.665 | 0.815 | 0.518 | 0.561 | 0.615 | 0.927 | 1.04
F fixed | 4.59 | 1.23 | 1.31 | 0.991 | 1.22 | 1.33 | 0.794 | 0.958 | 0.875
G fixed | 0.638 | 0.747 | 1.19 | 1.13 | 1.43 | 1.16 | 1.04 | 1.27 | 1.21
H fixed | 0.602 | 1.26 | 1.04 | 1.01 | 0.954 | 1 | 0.863 | 0.982 | 0.919
I fixed | 1.15 | 1.16 | 1.07 | 0.955 | 0.673 | 0.733 | 0.789 | 0.909 | 0.973
K fixed | 0.798 | 0.985 | 0.977 | 1.01 | 1.32 | 1.18 | 1.18 | 1.06 | 0.956
L fixed | 1.16 | 1.01 | 0.967 | 1 | 0.958 | 0.974 | 0.779 | 0.863 | 0.826
M fixed | 1.89 | 1.13 | 1.01 | 1.02 | 1.22 | 0.866 | 0.775 | 0.846 | 0.859
N fixed | 0.515 | 0.759 | 0.822 | 0.822 | 1.11 | 0.931 | 0.754 | 0.866 | 0.864
P fixed | 0.556 | 0.755 | 0.774 | 1.39 | 1.03 | 0.834 | 1 | 1.11 | 1.14
Q fixed | 0.622 | 0.722 | 0.77 | 0.871 | 0.847 | 0.94 | 0.843 | 0.89 | 0.788
R fixed | 0.875 | 1.18 | 1.29 | 1.21 | 1.61 | 1.49 | 3.72 | 1.18 | 1.09
V fixed | 0.664 | 1.21 | 1.02 | 0.868 | 0.661 | 0.71 | 0.762 | 1.07 | 1.19
W fixed | 0.709 | 0.98 | 1.28 | 1.13 | 0.873 | 0.987 | 0.749 | 0.994 | 0.919
Y fixed | 0.848 | 1.54 | 1.25 | 0.947 | 1.24 | 1.3 | 0.761 | 1.02 | 0.99
pThr fixed | 0.497 | 0.664 | 0.71 | 0.809 | 0.604 | 0.738 | 0.854 | 1.12 | 1.62
pTyr fixed | 0.432 | 0.616 | 0.903 | 0.852 | 0.738 | 0.821 | 1.13 | 2.5 | 2.94
